In patent publication US20240301069A1 one finds EC50 and IC50 data, which are given here for 1 substance.

Test [1] addresses human PD-L1 full-length protein on CHO-hPD-L1 stable cells (human) (UniProt Q9NZQ7). In words: flow cytometry, antibody titration on CHO-hPD-L1 cells, MFI-APC. (In general: A flow cytometer gives signals particle by particle.)
The target in test [2] is macaque PD-L1 on CHO-cynoPD-L1 stable cells (macaque). Kind of test: flow cytometry, antibody titration on CHO-cynoPD-L1 cells, MFI-APC.
Test [3] has as its target human PD-L1 on IFNγ-stimulated A375 cells (human) (UniProt Q9NZQ7). Kind of test: flow cytometry, antibody titration on human IFNγ-stimulated A375 cells, MFI-APC.
In test [4] the target is human PD-L1 full-length protein on CHO-hPD-L1 stable cells (human) (UniProt Q9NZQ7). In words: flow cytometry blocking assay: antibody titrated on CHO-hPD-L1 cells; blocked ligand recombinant human CD80-hFc.
The target is the same in test [5]. In words: flow cytometry blocking assay (method 1): antibody titrated on CHO-hPD-L1 cells; blocked ligand recombinant human PD-1-hFc.
Test [6] deals with recombinant human PD-L1 protein carrying a hFc label (human) (UniProt Q9NZQ7). In words: flow cytometry blocking assay (method 2): antibody titrated; binding of recombinant human PD-L1-hFc to PD-1 on CHO-hPD-1 cells is blocked.
Chain of recombinant human PD-L1 protein carrying a hFc label (human) (Q9NZQ7 19-238): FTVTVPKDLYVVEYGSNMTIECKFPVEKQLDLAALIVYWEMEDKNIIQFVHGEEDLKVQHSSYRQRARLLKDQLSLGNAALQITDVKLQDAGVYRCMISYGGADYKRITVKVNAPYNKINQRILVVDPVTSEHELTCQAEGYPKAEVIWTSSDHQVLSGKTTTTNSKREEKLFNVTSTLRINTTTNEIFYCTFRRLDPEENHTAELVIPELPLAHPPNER

Chain of human PD-L1 full-length protein on CHO-hPD-L1 stable cells (human) (Q9NZQ7 19-290 limits assumed): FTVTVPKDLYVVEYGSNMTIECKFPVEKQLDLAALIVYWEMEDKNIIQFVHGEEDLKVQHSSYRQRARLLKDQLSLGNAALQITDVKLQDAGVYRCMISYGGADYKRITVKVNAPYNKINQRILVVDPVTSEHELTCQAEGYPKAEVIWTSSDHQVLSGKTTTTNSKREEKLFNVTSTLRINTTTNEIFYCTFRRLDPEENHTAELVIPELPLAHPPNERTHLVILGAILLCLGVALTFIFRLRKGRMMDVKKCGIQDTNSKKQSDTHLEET
Chain of macaque PD-L1 on CHO-cynoPD-L1 stable cells (macaque) (Q9NZQ7 other isoform, or with tags, fused parts or gaps limits assumed): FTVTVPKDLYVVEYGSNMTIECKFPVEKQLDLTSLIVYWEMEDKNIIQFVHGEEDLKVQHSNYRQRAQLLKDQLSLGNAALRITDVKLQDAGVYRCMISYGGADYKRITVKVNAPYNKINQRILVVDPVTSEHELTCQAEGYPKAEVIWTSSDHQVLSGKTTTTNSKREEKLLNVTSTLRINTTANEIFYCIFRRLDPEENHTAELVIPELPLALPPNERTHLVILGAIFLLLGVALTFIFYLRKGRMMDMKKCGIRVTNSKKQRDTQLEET
Chain of human PD-L1 on IFNγ-stimulated A375 cells (human) (Q9NZQ7 19-290): as the sequence (Q9NZQ7 19-290 limits assumed) above

As for “atezolizumab-mIgG1 (mIgG1 subtype) (antibody)”, the EC50 was 0.984 nM in test [1], 2.02 nM in test [2] and 0.121 nM in test [3]. Further, the half-maximal inhibitory concentration (IC50) in test [4] worked out at 4.39 nM; in test [5], 6.32 nM; in test [6], 1.61 nM.

Usually EC50 stands for the midpoint of the concentration-response curve. As usually defined, the IC50 is the concentration that gives 50% inhibition.
